Patent publication US7531333B2, “Process for producing isoprenoid compounds by microorganisms and a method for screening compounds with antibiotic or weeding activity” (Kyowa Hakko Kogyo Co., Ltd., priority 1998, dated 2009)

Substrate: CC(=O)[C@@H](O)[C@H](O)COP(=O)(O)O
Test: Enzymatic activity of yaeM gene product (NADPH decrease, absorbance at 340 nm)
Assay type: biochemical, E. coli
Conditions: other: in the presence of MnCl2; pH 7.5; 37.0 °C
Protocol: 0.3 mol/l of 1-deoxy-D-xylulose 5-phosphate (final concentration) synthesized as described above was added to 1 ml of a reaction solution containing 100 mol/l Tris-hydrochloric acid (pH 7.5), 1 mol/l MmCl2, 0.3 mol/l NADPH and yaeM gene product obtained in Example 8 (2) ? , and then incubated at 37° C.
The enzymological characteristics of 1-deoxy-D-xylulose 5-phosphate reductoisomerase were examined using 1 ml of the reaction system as described in Example 8 (2) ? . Here, 1 unit is defined as the activity to oxidize 1 mmol of NADPH per a minute.

B1: 1-deoxy-D-xylulose 5-phosphate reductoisomerase (Escherichia coli K-12) (protein)
chain: MKQLTILGSTGSIGCSTLDVVRHNPEHFRVVALVAGKNVTRMVEQCLEFSPRYAVMDDEASAKLLKTMLQQQGSRTEVLSGQQAACDMAALEDVDQVMAAIVGAAGLLPTLAAIRAGKTILLANKESLVTCGRLFMDAVKQSKAQLLPVDSEHNAIFQSLPQPIQHNLGYADLEQNGVVSILLTGSGGPFRETPLRDLATMTPDQACRHPNWSMGRKISVDSATMMNKGLEYIEARWLFNASASQMEVLIHPQSVIHSMVRYQDGSVLAQLGEPDMVRQLPTPWAWPNRVNSGVKPLDFCKLSALTFAAPDYDRYPCLKLAMEAFEQGQAATTALNAANEITVAAFLAQQIRFTDIAALNLSVLEKMDMREPQCVDDVLSVDANAREVARKEVMRLAS
notes: made in house; host or cells: E. coli M15/pREP4
Km: 249 µM
